{"source": "patent US20230331860A1", "about": "(Bristol-Myers Squibb, published 2023)", "binders": {"B1": {"name": "BMS-986325 (antibody, human IgG1, kappa)", "heavy": "not shown", "light": "DIQMTQSPSFLSASVGDRVTITCKASQDVSTAVAWYQQKPGKAPKLLIYSASYRYTGVPSRFSGSGSGTDFTLTISSLQPEDFATYYCQQHYSTPWTFGGGTKVEIKRTVAAPSVFIFPPSDEQLKSGTASVVCLLNNFYPREAKVQWKVDNALQSGNSQESVTEQDSKDSTYSLSSTLTLSKADYEKHKVYACEVTHQGLSSPVTKSFNRGEC", "notes": "also called Y12XX-hz28-P238K; Y12XX-hz28 (Vh-hz14)"}}, "key": {"hCD64 [1]": {"biological_target": "T1, hCD64 (human, UniProt P12314 16-288, limits assumed)", "T1 construct": "also called human CD64", "T1 sequence (P12314 16-288 limits assumed)": "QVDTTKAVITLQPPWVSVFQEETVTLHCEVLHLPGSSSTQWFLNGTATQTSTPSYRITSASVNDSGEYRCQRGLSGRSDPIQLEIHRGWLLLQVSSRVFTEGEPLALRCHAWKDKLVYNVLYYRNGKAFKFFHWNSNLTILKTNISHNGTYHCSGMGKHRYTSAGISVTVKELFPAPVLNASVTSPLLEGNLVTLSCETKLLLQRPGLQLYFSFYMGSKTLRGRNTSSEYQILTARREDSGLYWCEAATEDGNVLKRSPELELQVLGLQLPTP", "experiment": "FcγR binding, SPR (method per paragraph 74)"}, "human CD40 [2]": {"biological_target": "T2, human CD40 (human, UniProt P25942 21-193)", "T2 sequence (P25942 21-193 limits assumed)": "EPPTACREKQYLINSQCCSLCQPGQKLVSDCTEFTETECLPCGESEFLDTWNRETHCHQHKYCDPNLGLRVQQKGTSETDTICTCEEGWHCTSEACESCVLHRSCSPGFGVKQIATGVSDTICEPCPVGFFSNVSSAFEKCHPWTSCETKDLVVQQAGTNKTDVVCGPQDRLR", "experiment": "cell-based or functional assay", "parameters": "IC50, suppression of CHO CD40L-induced IL-6 production by monocyte-derived DCs; n=4 donors (mass units as printed) / IC50, suppression of CHO CD40L-induced TNFα production by monocyte-derived DCs; n=4 donors (mass units as printed): unit not given beside the values"}, "human CD40 [3]": {"biological_target": "T2, human CD40", "experiment": "direct binding of AF488-labeled antibody to CD20-positive B cells in human whole blood; n=4 donors"}, "cynomolgus CD40 [4]": {"biological_target": "T3, cynomolgus CD40 (cynomolgus monkey, UniProt G7PG38 21-193)", "T3 construct": "also called monomeric cynomolgus CD40; monkey CD40 receptors", "experiment": "direct binding of AF488-labeled antibody to CD20-positive B cells in cynomolgus monkey whole blood; n=2 donors"}, "hCD32a-H131": {"biological_target": "T4, hCD32a-H131 (human, UniProt P12318 36-218, limits assumed)", "T4 construct": "Position 131 is the customary allotype numbering; also called hCD32a/FcγRIIa, H131 variant", "T4 sequence (looked up)": "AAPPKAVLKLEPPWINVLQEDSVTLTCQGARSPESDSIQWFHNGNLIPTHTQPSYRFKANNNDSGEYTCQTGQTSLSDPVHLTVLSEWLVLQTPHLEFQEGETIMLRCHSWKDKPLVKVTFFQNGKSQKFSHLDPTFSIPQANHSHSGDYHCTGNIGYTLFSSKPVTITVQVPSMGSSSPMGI", "experiment": "FcγR binding, SPR (method per paragraph 74)"}, "cyCD16": {"biological_target": "T5, cyCD16 (cynomolgus monkey, UniProt Q8SPW2 17-208, limits assumed)", "T5 construct": "also called cynomolgus CD16", "T5 sequence (Q8SPW2 17-208 limits assumed)": "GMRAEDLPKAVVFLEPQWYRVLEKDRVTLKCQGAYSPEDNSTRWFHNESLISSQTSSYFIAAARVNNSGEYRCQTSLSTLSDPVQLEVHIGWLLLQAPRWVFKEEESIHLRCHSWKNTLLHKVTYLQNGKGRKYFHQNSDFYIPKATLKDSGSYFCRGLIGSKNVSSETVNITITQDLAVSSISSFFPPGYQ", "experiment": "FcγR binding, SPR (method per paragraph 74)"}, "hCD64 [5]": {"biological_target": "T1, hCD64", "experiment": "FcγR binding, SPR (method per paragraph 74)", "remark": "listed apart in the source"}, "cyCD32b": {"biological_target": "T6, cyCD32b (cynomolgus monkey, UniProt A0A140HDP4 43-217)", "T6 construct": "also called cynomolgus CD32b", "T6 sequence": "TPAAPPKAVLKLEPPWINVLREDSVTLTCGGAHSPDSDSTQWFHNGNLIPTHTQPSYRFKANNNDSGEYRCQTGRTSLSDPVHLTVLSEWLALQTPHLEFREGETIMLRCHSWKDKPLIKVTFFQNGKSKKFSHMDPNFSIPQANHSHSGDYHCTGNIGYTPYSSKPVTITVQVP", "experiment": "FcγR binding, SPR (method per paragraph 74)"}, "hCD16a-V158": {"biological_target": "T7, hCD16a-V158 (human, UniProt P08637 17-208, limits assumed)", "T7 construct": "Position 158 is the customary allotype numbering; also called hCD16a/FcγRIIIa, V158 variant", "T7 sequence (P08637 17-208 F176V limits assumed)": "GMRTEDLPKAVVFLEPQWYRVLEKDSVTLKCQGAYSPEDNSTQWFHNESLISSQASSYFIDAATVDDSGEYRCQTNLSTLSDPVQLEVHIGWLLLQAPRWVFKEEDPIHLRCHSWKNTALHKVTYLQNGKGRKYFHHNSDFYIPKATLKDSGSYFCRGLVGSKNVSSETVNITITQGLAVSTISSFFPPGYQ", "experiment": "FcγR binding, SPR (method per paragraph 74)"}, "cyCD32a": {"biological_target": "T8, cyCD32a (cynomolgus monkey, UniProt A0A140HDN0 30-216)", "T8 construct": "also called cynomolgus CD32a", "T8 sequence": "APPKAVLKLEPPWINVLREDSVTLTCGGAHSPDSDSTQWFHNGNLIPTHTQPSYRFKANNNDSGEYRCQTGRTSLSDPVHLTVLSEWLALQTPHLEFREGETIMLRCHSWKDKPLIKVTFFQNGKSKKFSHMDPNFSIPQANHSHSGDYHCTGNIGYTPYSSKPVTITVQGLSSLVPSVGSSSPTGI", "experiment": "FcγR binding, SPR (method per paragraph 74)"}, "hCD32a-R131": {"biological_target": "T9, hCD32a-R131 (human, UniProt P12318 36-218, limits assumed)", "T9 construct": "Position 131 is the customary allotype numbering; also called hCD32a/FcγRIIa, R131 variant", "T9 sequence (looked up)": "T4 sequence (looked up) with H132R", "experiment": "FcγR binding, SPR (method per paragraph 74)"}, "hCD16a-F158": {"biological_target": "T10, hCD16a-F158 (human, UniProt P08637 17-208, limits assumed)", "T10 construct": "Position 158 is the customary allotype numbering; also called hCD16a/FcγRIIIa, F158 variant", "T10 sequence (P08637 17-208 limits assumed)": "as the sequence (P08637 17-208 F176V limits assumed) above, with V160F counted along it", "experiment": "FcγR binding, SPR (method per paragraph 74)"}, "hCD32b": {"biological_target": "T11, hCD32b (human, UniProt P31994 43-217, limits assumed)", "T11 construct": "also called hCD32b/FcγRIIb", "T11 sequence (looked up)": "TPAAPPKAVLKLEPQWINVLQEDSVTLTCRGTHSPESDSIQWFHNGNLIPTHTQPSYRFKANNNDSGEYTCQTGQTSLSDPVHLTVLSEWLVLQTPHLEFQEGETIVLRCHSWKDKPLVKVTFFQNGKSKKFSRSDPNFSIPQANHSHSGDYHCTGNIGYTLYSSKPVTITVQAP", "experiment": "FcγR binding, SPR (method per paragraph 74)"}, "human CD40 [6]": {"biological_target": "T2, human CD40", "experiment": "cell-based or functional assay"}, "cynomolgus CD40 [7]": {"biological_target": "T3, cynomolgus CD40", "experiment": "cell-based or functional assay"}, "human CD40 [8]": {"biological_target": "T2, human CD40", "experiment": "direct binding of AF488-labeled antibody to CD20-positive B cells in human whole blood; n=4 donors (same result in mass units)"}, "human CD40 [9]": {"biological_target": "T2, human CD40", "experiment": "SPR, antibody captured on protein A chip, monomeric CD40 as analyte"}, "cynomolgus CD40 [10]": {"biological_target": "T3, cynomolgus CD40", "experiment": "SPR, antibody captured on protein A chip, monomeric CD40 as analyte"}, "cynomolgus CD40 [11]": {"biological_target": "T3, cynomolgus CD40", "experiment": "binding to CD20-positive B cells in cynomolgus monkey whole blood, detected with secondary anti-human IgG1-PE; n=4 donors (same result in mass units)"}, "cynomolgus CD40 [12]": {"biological_target": "T3, cynomolgus CD40", "experiment": "direct binding of AF488-labeled antibody to CD20-positive B cells in cynomolgus monkey whole blood; n=2 donors (same result in mass units)"}, "cynomolgus CD40 [13]": {"biological_target": "T3, cynomolgus CD40", "experiment": "binding to CD20-positive B cells in cynomolgus monkey whole blood, detected with secondary anti-human IgG1-PE; n=4 donors"}, "murine CD40": {"biological_target": "T12, murine CD40 (murine, UniProt P27512 24-193, limits assumed)", "T12 construct": "also called murine CD40 receptors", "T12 sequence (looked up)": "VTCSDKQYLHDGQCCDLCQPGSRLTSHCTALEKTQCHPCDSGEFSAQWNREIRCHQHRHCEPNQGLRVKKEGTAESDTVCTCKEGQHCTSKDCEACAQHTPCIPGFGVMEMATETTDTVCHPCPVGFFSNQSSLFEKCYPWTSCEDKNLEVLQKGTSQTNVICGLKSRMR", "experiment": "single-cycle kinetic SPR, CD40 on the surface"}}, "note": "Where a chain is given by its changes, count along the chain named. Names may count otherwise."}
{"binder": "B1", "values": [{"measurement": "fold weaker binding than wild-type human IgG1 control", "setting": "hCD64 [1]", "result": 100, "unit": "fold"}, {"measurement": "IC50, suppression of CHO CD40L-induced IL-6 production by monocyte-derived DCs; n=4 donors", "setting": "human CD40 [2]", "result": 0.08, "unit": "nM"}, {"measurement": "IC50, suppression of CHO CD40L-induced IL-6 production by monocyte-derived DCs; n=4 donors (mass units as printed)", "setting": "human CD40 [2]", "result": 11.3}, {"measurement": "IC50, suppression of CHO CD40L-induced TNFα production by monocyte-derived DCs; n=4 donors", "setting": "human CD40 [2]", "result": 0.1, "unit": "nM"}, {"measurement": "IC50, suppression of CHO CD40L-induced TNFα production by monocyte-derived DCs; n=4 donors (mass units as printed)", "setting": "human CD40 [2]", "result": 13.3}, {"measurement": "EC50", "setting": "human CD40 [3]", "result": 0.9, "unit": "nM"}, {"measurement": "EC50", "setting": "cynomolgus CD40 [4]", "result": 1, "unit": "nM"}, {"measurement": "binding result", "setting": "hCD32a-H131", "result": "no binding"}, {"measurement": "binding result", "setting": "cyCD16", "result": "no binding"}, {"measurement": "Kd", "setting": "hCD64 [5]", "result": 17, "unit": "nM"}, {"measurement": "binding result", "setting": "cyCD32b", "result": "no binding"}, {"measurement": "binding result", "setting": "hCD16a-V158", "result": "no binding"}, {"measurement": "binding result", "setting": "cyCD32a", "result": "no binding"}, {"measurement": "binding result", "setting": "hCD32a-R131", "result": "no binding"}, {"measurement": "binding result", "setting": "hCD16a-F158", "result": "no binding"}, {"measurement": "binding result", "setting": "hCD32b", "result": "no binding"}, {"measurement": "IC50, inhibition of CD54 upregulation on human B cells in whole blood stimulated by soluble CD40L trimer; n=10 donors", "setting": "human CD40 [6]", "result": 0.24, "unit": "nM"}, {"measurement": "IC50, inhibition of CD54 upregulation on human B cells in whole blood stimulated by soluble CD40L trimer; n=10 donors (mass units)", "setting": "human CD40 [6]", "result": 0.0346, "unit": "µg/mL"}, {"measurement": "IC50, inhibition of CD86 upregulation on human B cells in whole blood stimulated by soluble CD40L trimer; n=10 donors", "setting": "human CD40 [6]", "result": 0.24, "unit": "nM"}, {"measurement": "IC50, inhibition of CD86 upregulation on human B cells in whole blood stimulated by soluble CD40L trimer; n=10 donors (mass units)", "setting": "human CD40 [6]", "result": 0.0342, "unit": "µg/mL"}, {"measurement": "IC50, inhibition of human tonsillar B-cell proliferation stimulated by soluble CD40L trimer; n=10 donors", "setting": "human CD40 [6]", "result": 0.04, "unit": "nM"}, {"measurement": "IC50, inhibition of human tonsillar B-cell proliferation stimulated by soluble CD40L trimer; n=10 donors (mass units)", "setting": "human CD40 [6]", "result": 0.0056, "unit": "µg/mL"}, {"measurement": "IC50, inhibition of tonsillar B-cell proliferation stimulated by CD40L-expressing CHO cells; n=8 donors", "setting": "human CD40 [6]", "result": 0.28, "unit": "nM"}, {"measurement": "IC50, inhibition of tonsillar B-cell proliferation stimulated by CD40L-expressing CHO cells; n=8 donors (mass units)", "setting": "human CD40 [6]", "result": 0.0399, "unit": "µg/mL"}, {"measurement": "IC50, inhibition of CD86 upregulation on cynomolgus B cells in whole blood stimulated by soluble CD40L trimer; n=8 donors", "setting": "cynomolgus CD40 [7]", "result": 0.25, "unit": "nM"}, {"measurement": "IC50, inhibition of CD86 upregulation on cynomolgus B cells in whole blood stimulated by soluble CD40L trimer; n=8 donors (mass units)", "setting": "cynomolgus CD40 [7]", "result": 0.0364, "unit": "µg/mL"}, {"measurement": "IC50, inhibition of cynomolgus splenic B-cell proliferation driven by CD40L-expressing CHO cells; n=6 donors", "setting": "cynomolgus CD40 [7]", "result": 4.5, "unit": "nM"}, {"measurement": "IC50, inhibition of cynomolgus splenic B-cell proliferation driven by CD40L-expressing CHO cells; n=6 donors (mass units)", "setting": "cynomolgus CD40 [7]", "result": 0.65, "unit": "µg/mL"}, {"measurement": "IC50, inhibition of cynomolgus splenic B-cell proliferation driven by CD40L-trimer; n=6 donors", "setting": "cynomolgus CD40 [7]", "result": 0.19, "unit": "nM"}, {"measurement": "IC50, inhibition of cynomolgus splenic B-cell proliferation driven by CD40L-trimer; n=6 donors (mass units)", "setting": "cynomolgus CD40 [7]", "result": 0.0278, "unit": "µg/mL"}, {"measurement": "EC50", "setting": "human CD40 [8]", "result": 0.13, "unit": "µg/mL"}, {"measurement": "Kd", "setting": "human CD40 [9]", "result": 5.3, "unit": "nM"}, {"measurement": "koff", "setting": "human CD40 [9]", "result": 0.0012, "unit": "s⁻¹"}, {"measurement": "kon", "setting": "human CD40 [9]", "result": 230000, "unit": "M⁻¹ s⁻¹"}, {"measurement": "Kd", "setting": "cynomolgus CD40 [10]", "result": 6.7, "unit": "nM"}, {"measurement": "koff", "setting": "cynomolgus CD40 [10]", "result": 0.0016, "unit": "s⁻¹"}, {"measurement": "kon", "setting": "cynomolgus CD40 [10]", "result": 240000, "unit": "M⁻¹ s⁻¹"}, {"measurement": "EC50", "setting": "cynomolgus CD40 [11]", "result": 0.106, "unit": "µg/mL"}, {"measurement": "EC50", "setting": "cynomolgus CD40 [12]", "result": 0.149, "unit": "µg/mL"}, {"measurement": "EC50", "setting": "cynomolgus CD40 [13]", "result": 0.7, "unit": "nM"}, {"measurement": "binding result", "setting": "murine CD40", "result": "no binding"}]}
